Reference: patent US20250206839A1, “METHODS, COMPOSITIONS AND USES FOR SEMA7A MONOCLONAL ANTIBODIES” (THE REGENTS OF THE UNIVERSITY OF COLORADO, A BODY CORPORATE, priority 2022, published 2025)
“Also recorded” adds a separate entry of the source.

How the values were obtained:
MCF7 cells = experiment: Cell viability, crystal violet, 48 h; assay type: cell-based, human; details: MCF7, 500 nM SmAbH1 vs 8 nM Fulvestrant
Method: For proliferation assays, cells were plated at 2000 cells per well of a 96-well dish. Four pictures of different regions in each well were taken every four hours for 48 h using an IncuCyte ZOOM (Essen BioScience, Ann Arbor, MI, USA). Percent confluence was determined using the IncuCyte ZOOM software (Essen BioScience). 66cl4 Sema7A DDK cells were plated in a 96-well plate in triplicate at 1,500 cells/well. They sat down over 24 hours and then were treated with 1000 nM IgG control, 10 nM SmAbH1, 100 nM SmAbH1, 200 nM SmAbH1, 500 nM SmAbH1, or 1000 nM SmAbH1. The plate was promptly transferred to the IncuCyte where photos were taken and analyzed every 4 hours for 7 days. For additional treatment studies in MCF7, TC11 and SSM2 cells ([…]) were plated in a 24-well plate in complete media and allowed to sit down over 24 hours. At 24 hours after plating, cells were treated with 500 nM IgG control, 500 nM SmAbH1, 8 nM Fulvestrant or the combination. The plate was incubated at 37 C for 48 hours, then fixed with 10% NBF and stained with crystal violet.

SEMA7A isoforms = experiment: Western blot recognition of SEMA7A isoforms; assay type: binding
pNFκB in MDA468 cells = experiment: Western blot for phosphorylation of NFκB; assay type: cell-based, human; details: MDA468, low SEMA7A
Method: (§1) In another exemplary method, the ability of the anti-SEMA7A monoclonal antibodies to affect cellular processes related to cell survival was tested. In one exemplary method, human triple negative breast cancer cell lines with low (MDA468) or high (MDA231) levels of SEMA7A were treated with SmAbH1 (CUH1) or commercially available monoclonal antibody-based inhibitors of an integrin receptor for SEMA7A (α6β1) and then evaluated using Western blot for phosphorylation of NFκB (pNFκB), a key survival marker.

pNFκB in MDA231 cells = experiment: Western blot for phosphorylation of NFκB; assay type: cell-based, human; details: MDA231, high SEMA7A
Method: as §1

SEMA7A = target: T1, SEMA7A (Homo sapiens, UniProt O75326); experiment: Western blot binding on MCF7 control and SEMA7A OE cell lysates; details: 200 μg/mL antibody
T1 construct: MCF7 cells endogenously express SEMA7A (75 kDa); endogenous in cells; host or cells: MCF7
T1 sequence (O75326 45-648): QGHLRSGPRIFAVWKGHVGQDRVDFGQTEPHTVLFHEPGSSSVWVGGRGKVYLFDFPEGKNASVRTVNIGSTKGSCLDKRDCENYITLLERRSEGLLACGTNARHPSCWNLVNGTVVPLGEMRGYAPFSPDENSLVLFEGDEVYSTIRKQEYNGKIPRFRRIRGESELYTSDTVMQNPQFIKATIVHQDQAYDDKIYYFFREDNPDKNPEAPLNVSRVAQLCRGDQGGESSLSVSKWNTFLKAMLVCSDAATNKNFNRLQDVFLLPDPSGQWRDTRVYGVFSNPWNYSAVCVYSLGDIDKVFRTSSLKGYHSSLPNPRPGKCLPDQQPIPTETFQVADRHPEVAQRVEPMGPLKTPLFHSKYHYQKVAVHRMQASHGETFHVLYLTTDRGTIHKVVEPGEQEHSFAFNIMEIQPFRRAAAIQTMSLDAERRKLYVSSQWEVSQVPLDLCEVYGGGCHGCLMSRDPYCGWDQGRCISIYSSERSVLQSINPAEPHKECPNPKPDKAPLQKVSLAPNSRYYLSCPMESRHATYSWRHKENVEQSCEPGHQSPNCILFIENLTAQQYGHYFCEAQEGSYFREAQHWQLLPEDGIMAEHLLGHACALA
Method: In another exemplary method, the ability of an anti-SEMA7A monoclonal antibody to bind to SEMATA was tested. In one exemplary method, CUH1 mAb was validated for binding to MCF7 SEMA7A over expressing cell lysate using Western Blot. Specifically. binding of the CUH1 mAb was detected on lysates from MCF7 control cells and SEMA7A overexpressing (OE) cells using 200 μg/mL of SmAbH1. MCF7 cells endogenously express SEMA7A (75 kDa) but OE cells were engineered to overexpress V5 tagged
MCF7 cells were lysed with RIPA containing EDTA (Thermo Scientific) and spun at 14K for 15 min. The supernatant was then quantitated using a Qubit Assay (Invitrogen) standard protocol and mixed 3:1 with Laemmli Sample Buffer (BioRad) with 2-mercaptoethanol and heated at 70 degrees for 10 min. 100 μg of lysate was loaded onto 4-20% Tris-Glycine gel (BioRad) and transferred to a PVDF membrane (Milipore). The membrane was blocked with 5% Bovine Serum Albumin (BSA) for 3 hours and then probed with 200 μg/ml of CUH1 in 5% BSA overnight at 4 degrees with gentle rocking. The membrane was washed three times 15 minutes with TBS-T and then probed with 10 ng/ml Goat Anti-Mouse IgG HRP (Abcam 97040) in 5% BSA for 1 hour at room temp. The membrane was washed and then incubated with 1:1 mix SuperSignal West Pico (Thermo Scientific) for 4 min at room temp.

B1: SmAbH1: mouse monoclonal antibody against SEMA7A generated using the 10-mer immunizing peptide … (SEQ ID NO: 2) (antibody, V domains shown)
VH: QVKLQESGTVLARPGASVKMSCKASVYSFTSYWMHWVKQRPGQGLEWIGAIYPGNSDTSYNQKFKGKAKLTAVTSASTAYMELSSLTNEDSAVYYCTRGGAPTMITAYYAMDYWGQGTSVTVSS
VL: DIQMTQTTSSLSASLGDRVTISCRASQDISNYLNWYQQKPDGTVKLLIYYTSRLHSGVPSRFSGSGSGTDYSLTISNLEQEDIATYFCQQGNTLPWTFGGGTKLEIKR
cell viability compared to fulvestrant (MCF7 cells): more significantly reduced
recognition of SEMA7A isoforms (SEMA7A isoforms): recognition of all three isoforms of SEMATA
downstream NFκB activation (pNFκB levels) (pNFκB in MDA468 cells): blocked downstream NFκB activation
downstream NFκB activation (pNFκB levels) (pNFκB in MDA231 cells): blocked downstream NFκB activation; also recorded: the effect was stronger
binding to SEMA7A in cell lysates (SEMA7A): successfully bound to both endogenous (75 kDa) and overexpressed (100 kDa) SEMA7A
